Consider one molecule from publication PMC10256812.

The test has as its target T1, FLAG-tagged androgen receptor (AR), P10275.
T1 chain: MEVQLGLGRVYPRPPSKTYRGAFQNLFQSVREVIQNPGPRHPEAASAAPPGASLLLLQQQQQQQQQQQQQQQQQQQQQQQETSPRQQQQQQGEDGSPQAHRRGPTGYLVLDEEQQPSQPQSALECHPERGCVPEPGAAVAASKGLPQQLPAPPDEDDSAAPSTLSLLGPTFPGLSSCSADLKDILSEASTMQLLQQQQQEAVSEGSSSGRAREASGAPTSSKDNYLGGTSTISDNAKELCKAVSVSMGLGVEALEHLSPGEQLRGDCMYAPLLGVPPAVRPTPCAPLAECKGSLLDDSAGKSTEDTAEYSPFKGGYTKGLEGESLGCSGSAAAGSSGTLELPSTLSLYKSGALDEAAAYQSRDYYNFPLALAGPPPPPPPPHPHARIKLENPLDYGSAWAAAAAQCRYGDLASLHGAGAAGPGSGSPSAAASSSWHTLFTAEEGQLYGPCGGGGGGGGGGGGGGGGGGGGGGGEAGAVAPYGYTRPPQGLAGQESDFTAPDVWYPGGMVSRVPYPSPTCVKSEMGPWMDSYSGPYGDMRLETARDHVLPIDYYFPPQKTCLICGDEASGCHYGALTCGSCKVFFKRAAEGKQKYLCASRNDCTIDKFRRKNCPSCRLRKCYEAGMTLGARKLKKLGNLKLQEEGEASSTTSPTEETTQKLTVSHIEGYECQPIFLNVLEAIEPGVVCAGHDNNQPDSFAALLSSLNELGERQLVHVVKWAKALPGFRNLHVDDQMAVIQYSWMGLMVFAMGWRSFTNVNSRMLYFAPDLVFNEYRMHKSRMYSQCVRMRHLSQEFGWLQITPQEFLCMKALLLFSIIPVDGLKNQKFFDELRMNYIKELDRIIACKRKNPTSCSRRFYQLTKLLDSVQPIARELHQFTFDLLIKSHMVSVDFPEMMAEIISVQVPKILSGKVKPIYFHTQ
Kind of test: co-immunoprecipitation (Ni-NTA pull-down of His-SREBF1, immunoblot with FLAG antibody), band quantification. The note with it: chain shown with the change, HEK293T cells. In general terms: In western blotting, separated proteins are transferred to a membrane and probed.

B1: His-tagged SREBF1 (wild type), expressed in HEK293T cells, P36956 Y673A; Y951A (protein)
chain: MDEPPFSEAALEQALGEPCDLDAALLTDIEDMLQLINNQDSDFPGLFDPPYAGSGAGGTDPASPDTSSPGSLSPPPATLSSSLEAFLSGPQAAPSPLSPPQPAPTPLKMYPSMPAFSPGPGIKEESVPLSILQTPTPQPLPGALLPQSFPAPAPPQFSSTPVLGYPSPPGGFSTGSPPGNTQQPLPGLPLASPPGVPPVSLHTQVQSVVPQQLLTVTAAPTAAPVTTTVTSQIQQVPVLLQPHFIKADSLLLTAMKTDGATVKAAGLSPLVSGTTVQTGPLPTLVSGGTILATVPLVVDAEKLPINRLAAGSKAPASAQSRGEKRTAHNAIEKRYRSSINDKIIELKDLVVGTEAKLNKSAVLRKAIDYIRFLQHSNQKLKQENLSLRTAVHKSKSLKDLVSACGSGGNTDVLMEGVKTEVEDTLTPPPSDAGSPFQSSPLSLGSRGSGSGGSGSDSEPDSPVFEDSKAKPEQRPSLHSRGMLDRSRLALCTLVFLCLSCNPLASLLGARGLPSPSDTTSVYHSPGRNVLGTESRDGPGWAQWLLPPVVWLLNGLLVLVSLVLLFVYGEPVTRPHSGPAVYFWRHRKQADLDLARGDFAQAAQQLWLALRALGRPLPTSHLDLACSLLWNLIRHLLQRLWVGRWLAGRAGGLQQDCALRVDASASARDAALVAHKLHQLHTMGKHTGGHLTATNLALSALNLAECAGDAVSVATLAEIYVAAALRVKTSLPRALHFLTRFFLSSARQACLAQSGSVPPAMQWLCHPVGHRFFVDGDWSVLSTPWESLYSLAGNPVDPLAQVTQLFREHLLERALNCVTQPNPSPGSADGDKEFSDALGYLQLLNSCSDAAGAPAYSFSISSSMATTTGVDPVAKWWASLTAVVIHWLRRDEEAAERLCPLVEHLPRVLQESERPLPRAALHSFKAARALLGCAKAESGPASLTICEKASGALQDSLATTPASSSIDKAVQLFLCDLLLVVRTSLWRQQQPPAPAPAAQGTSSRPQASALELRGFQRDLSSLRRLAQSFRPAMRRVFLHEATARLMAGASPTRTHQLLDRSLRRRAGPGGKGGAVAELEPRPTRREHAEALLLASCYLPPGFLSAPGQRVGMLAEAARTLEKLGDRRLLHDCQQMLMRLGGGTTVTSS
On to B1, for which the response by setting is: (+ DHT, parent: 0.9) 3.7; (without DHT, parent: 0.1) 0.3.
